B1: HA-DAT (endogenous, HA-DAT knock-in mouse) (natural protein, UniProt Q61327 1-619, looked up)
chain: MSKSKCSVGPMSSVVAPAKEPNAVGPREVELILVKEQNGVQLTNSTLINPPQTPVEVQERETWSKKIDFLLSVIGFAVDLANVWRFPYLCYKNGGGAFLVPYLLFMVIAGMPLFYMELALGQFNREGAAGVWKICPVLKGVGFTVILISFYVGFFYNVIIAWALHYFFSSFTMDLPWIHCNNTWNSPNCSDAHSSNSSDGLGLNDTFGTTPAAEYFERGVLHLHQSRGIDDLGPPRWQLTACLVLVIVLLYFSLWKGVKTSGKVVWITATMPYVVLTALLLRGVTLPGAMDGIRAYLSVDFYRLCEASVWIDAATQVCFSLGVGFGVLIAFSSYNKFTNNCYRDAIITTSINSLTSFSSGFVVFSFLGYMAQKHNVPIRDVATDGPGLIFIIYPEAIATLPLSSAWAAVFFLMLLTLGIDSAMGGMESVITGLVDEFQLLHRHRELFTLGIVLATFLLSLFCVTNGGIYVFTLLDHFAAGTSILFGVLIEAIGVAWFYGVQQFSDDIKQMTGQRPNLYWRLCWKLVSPCFLLYVVVVSIVTFRPPHYGAYIFPDWANALGWIIATSSMAMVPIYATYKFCSLPGSFREKLAYAITPEKDRQLVDRGEVRQFTLRHWLLV
notes: it is reached by the HA11 antibody from outside the cell; Detected with the rat DAT antibody; oligomer species at 190 kDa; also called mouse DAT; source: endogenous (knock-in), striatal synaptosomes of adult HA-DAT mice
B2: DAT fused to yellow fluorescent protein (YFP) (YFP-DAT) (natural protein, human, UniProt Q01959 1-620, looked up)
chain: MSKSKCSVGLMSSVVAPAKEPNAVGPKEVELILVKEQNGVQLTSSTLTNPRQSPVEAQDRETWGKKIDFLLSVIGFAVDLANVWRFPYLCYKNGGGAFLVPYLLFMVIAGMPLFYMELALGQFNREGAAGVWKICPILKGVGFTVILISLYVGFFYNVIIAWALHYLFSSFTTELPWIHCNNSWNSPNCSDAHPGDSSGDSSGLNDTFGTTPAAEYFERGVLHLHQSHGIDDLGPPRWQLTACLVLVIVLLYFSLWKGVKTSGKVVWITATMPYVVLTALLLRGVTLPGAIDGIRAYLSVDFYRLCEASVWIDAATQVCFSLGVGFGVLIAFSSYNKFTNNCYRDAIVTTSINSLTSFSSGFVVFSFLGYMAQKHSVPIGDVAKDGPGLIFIIYPEAIATLPLSSAWAVVFFIMLLTLGIDSAMGGMESVITGLIDEFQLLHRHRELFTLFIVLATFLLSLFCVTNGGIYVFTLLDHFAAGTSILFGVLIEAIGVAWFYGVGQFSDDIQQMTGQRPSLYWRLCWKLVSPCFLLFVVVVSIVTFRPPHYGAYIFPDWANALGWVIATSSMAMVPIYAAYKFCSLPGSFREKLAYAIAPEKDRELVDRGEVRQFTLRHWLKV
notes: Dopamine transporter (DAT), human; In the FRET experiment one copy carried CFP (CFP-DAT) and the other YFP (YFP-DAT); also called CFP-DAT (the copy with CFP in place of YFP, donor in the FRET experiment); source: PAE cells, stably expressed, in lysate; for FRET in living PAE cells stably co-expressing CFP-DAT and YFP-DAT

How the values were obtained:
[1] = target: the molecule itself; experiment: SDS-resistant oligomers on SDS-PAGE and western blot; striatal synaptosomes of adult HA-DAT mice in KRH/G, vehicle (DMSO) or 10–20 µM AIM-100 for 2 hr at 37°C; pelleted synaptosomes denatured in Laemmli buffer, SDS-PAGE, blot with DAT antibody
[2] = target: the molecule itself; experiment: SDS-resistant oligomers on SDS-PAGE and western blot; PAE cells stably expressing the tagged transporter, vehicle (DMSO) or 20 µM AIM-100 for 2 hr at 37°C (also after cocaine, dopamine, amphetamine, modafinil, KRCA-0008, CHC siRNA, at 4°C or 20°C); lysis in TGH buffer, Laemmli buffer (2% SDS, 5% β-mercaptoethanol) 5 min at 95°C, 7.5% SDS-PAGE, blot with GFP antibody; oligomers (O) against monomers (M)

| Protein | stoichiometry N [1] | stoichiometry N [2] |
| --- | --- | --- |
| B1 | ~3 | – |
| B2 | – | ~3 |

Reference: publication PMC5896956, “Small molecule induced oligomerization, clustering and clathrin-independent endocytosis of the dopamine transporter” (eLife, 2018)
